± gives the standard deviation of the averaged measurements.

For 79 sequences, switch fluorescence ratio results are on record in the supplement of paper PMC10126150.

The data set relates to ATP. Description: switch fluorescence ratio, 500 uM ATP over buffer (Cy3 cluster intensity, sum of 5 cycles each) (fold (ratio)); higher = stronger signal-on switching upon ATP binding; sequences stand for … in TCGTCGGCAGCGTCAGATGTGTATAAGAGACAGTTTTTTTTTTTTTTTTTTTTTTTTT…TC. To be noted: aptamer strand: ATP DNA aptamer (quencher-CACCTGGGGGAGTATTGCGGAGGAAGG + anchor), 100 nM annealed; ATP concentration: 500 uM. In short, it runs like this:
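Between each of five buffer/ATP cycles, the flow-cell was stripped with NaOH and re-annealed. Each cycle imaged Cy3-labelled switching-strand clusters, annealed to 100 nM quencher-labelled ATP aptamer on a modified Illumina MiSeq flow-cell, first in selection buffer and then after 15 min with 500 uM ATP at 22 °C. The fluorescence ratio is summed target-cycle over summed buffer-cycle Cy3 intensity per cluster, averaged per switch-domain sequence, with clusters outside 100-1000 RFU excluded.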
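Further: ATP exposure 15 min at 22 °C before imaging.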

On to TTGGGGCCCG, for which the switch fluorescence ratio is 1.01 ± 0.082.

With TTGGGGCCTC, the switch fluorescence ratio is 1 ± 0.033.

TTGGGGGAAG: the switch fluorescence ratio was 0.981 ± 0.026.

Consider TTGGGGGACA, for which the switch fluorescence ratio is 1.01 ± 0.014.

For the sequence TTGGGGGCTT, the switch fluorescence ratio came out at 1 ± 0.039.

As for TTGGGGGGCC, the switch fluorescence ratio amounted to 1.01 ± 0.031.

Turning to TTGGGGGGCG, the switch fluorescence ratio is 1.01 ± 0.073.

In the case of TTGGGGGTTA, the switch fluorescence ratio is 1.02 ± 0.019.

For TTGGGGTAAC, the switch fluorescence ratio amounted to 1.009 ± 0.01.

Consider TTGGGGTGAA, for which the switch fluorescence ratio was 1.1 ± 0.14.

On to TTGGGGTGGG, for which the switch fluorescence ratio was found to be 1.01 ± 0.046.

TTGGGGTGTG: the switch fluorescence ratio was determined as 1.01 ± 0.017.

Consider TTGGGGTTCG, for which the switch fluorescence ratio was determined as 0.98 ± 0.029.

For TTGGGTAAAT, the switch fluorescence ratio stood at 0.985 ± 0.031.

In the case of TTGGGTAAGC, the switch fluorescence ratio is 0.994 ± 0.066.

For the sequence TTGGGTAAGG, the switch fluorescence ratio is 0.993 ± 0.029.

Consider TTGGGTAATT, for which the switch fluorescence ratio came out at 0.998 ± 0.022.

On to TTGGGTACGA, for which the switch fluorescence ratio came to 0.997 ± 0.0043.

For TTGGGTCAGA, the switch fluorescence ratio was 0.981 ± 0.018.

For TTGGGTGAAC, the switch fluorescence ratio is 1.002 ± 0.0088.

Take TTGGGTGAGG: the switch fluorescence ratio was 0.98 ± 0.028.

As to TTGGGTGTTT, the switch fluorescence ratio was found to be 1.06 ± 0.035.

TTGGGTTCTC: the switch fluorescence ratio turned out to be 0.983 ± 0.037.

For TTGGGTTTCG, the switch fluorescence ratio amounted to 1.01 ± 0.042.

Turning to TTGGGTTTTC, the switch fluorescence ratio worked out at 1.03 ± 0.065.

In the case of TTGGTAAGCG, the switch fluorescence ratio is 1.02 ± 0.051.

For TTGGTAAGGG, the switch fluorescence ratio stood at 1.03 ± 0.011.

With TTGGTACTGT, the switch fluorescence ratio came to 1.02 ± 0.014.

Consider TTGGTCCCGA, for which the switch fluorescence ratio amounted to 1.001 ± 0.0014.

On to TTGGTCGCCC, for which the switch fluorescence ratio came out at 1.08 ± 0.17.

With TTGGTCGTTT, the switch fluorescence ratio was determined as 0.956 ± 0.038.

Take TTGGTCTGGT: the switch fluorescence ratio worked out at 0.973 ± 0.024.

For TTGGTGACGT, the switch fluorescence ratio was found to be 1.03 ± 0.022.

For TTGGTGGGTT, the switch fluorescence ratio came to 0.994 ± 0.04.

For TTGGTGGTCT, the switch fluorescence ratio came to 1.05 ± 0.075.

As for TTGGTGGTGG, the switch fluorescence ratio stood at 1.01 ± 0.053.

Take TTGGTTCACC: the switch fluorescence ratio was found to be 0.955 ± 0.029.

On to TTGGTTGAAA, for which the switch fluorescence ratio came out at 1.01 ± 0.013.

TTGGTTGAAG: the switch fluorescence ratio was 1.02 ± 0.013.

As to TTGGTTGACA, the switch fluorescence ratio is 0.9641 ± 0.0094.

For TTGGTTGCAA, the switch fluorescence ratio was determined as 0.983 ± 0.029.

Consider TTGGTTGGCG, for which the switch fluorescence ratio amounted to 0.992 ± 0.041.

As for TTGGTTGGGA, the switch fluorescence ratio turned out to be 1 ± 0.042.

For TTGGTTGGGG, the switch fluorescence ratio amounted to 1 ± 0.03.

For the sequence TTGGTTGTTA, the switch fluorescence ratio came to 1.01 ± 0.041.

Regarding TTGGTTTACC, the switch fluorescence ratio was 0.957 ± 0.011.

Turning to TTGGTTTATG, the switch fluorescence ratio is 0.993 ± 0.045.

Consider TTGGTTTCAT, for which the switch fluorescence ratio was 1.009 ± 0.0094.

In the case of TTGGTTTGTA, the switch fluorescence ratio is 1 ± 0.065.

As to TTGGTTTTCG, the switch fluorescence ratio worked out at 0.973 ± 0.026.

As to TTGGTTTTTT, the switch fluorescence ratio stood at 1 ± 0.034.

For the sequence TTGTAAATCG, the switch fluorescence ratio was found to be 0.975 ± 0.02.

In the case of TTGTAAATT, the switch fluorescence ratio was 1.02 ± 0.043.

With TTGTAAATTT, the switch fluorescence ratio is 1.012 ± 0.01.

Regarding TTGTAAGGAT, the switch fluorescence ratio stood at 1.02 ± 0.013.

Consider TTGTAATGTT, for which the switch fluorescence ratio came out at 1.01 ± 0.051.

On to TTGTAATTGT, for which the switch fluorescence ratio worked out at 0.995 ± 0.021.

As for TTGTAATTTA, the switch fluorescence ratio is 1.01 ± 0.019.

Turning to TTGTACATCC, the switch fluorescence ratio turned out to be 1.03 ± 0.013.

On to TTGTACGCCA, for which the switch fluorescence ratio amounted to 1.31 ± 0.19.

For TTGTAGACAG, the switch fluorescence ratio was found to be 1.013 ± 0.0088.

Regarding TTGTAGCGGT, the switch fluorescence ratio was 1.05 ± 0.034.

For TTGTAGTGGG, the switch fluorescence ratio amounted to 1.02 ± 0.048.

In the case of TTGTAGTTAC, the switch fluorescence ratio turned out to be 1.034 ± 0.0049.

In the case of TTGTATAGTG, the switch fluorescence ratio came out at 0.933 ± 0.033.

On to TTGTATATGT, for which the switch fluorescence ratio came out at 1.0292 ± 2.1e-05.

Turning to TTGTATCACG, the switch fluorescence ratio amounted to 1.03 ± 0.059.

Turning to TTGTATGATT, the switch fluorescence ratio came to 1.013 ± 0.0075.

For the sequence TTGTATGGAC, the switch fluorescence ratio amounted to 1.019 ± 0.0076.

With TTGTATGGCA, the switch fluorescence ratio was 0.973 ± 0.027.

As to TTGTATGTTA, the switch fluorescence ratio was 1 ± 0.017.

As for TTGTCAATGT, the switch fluorescence ratio was 1.06 ± 0.053.

Consider TTGTCACAGC, for which the switch fluorescence ratio is 1.03 ± 0.022.

Consider TTGTCAGGGT, for which the switch fluorescence ratio was 0.995 ± 0.026.

Consider TTGTCATGAT, for which the switch fluorescence ratio amounted to 1.006 ± 0.006.

On to TTGTCGCGTA, for which the switch fluorescence ratio came out at 1.01 ± 0.07.

Turning to TTGTCGGTTT, the switch fluorescence ratio came to 0.983 ± 0.014.

As to TTGTCGTCAC, the switch fluorescence ratio amounted to 1.01 ± 0.037.

Regarding TTGTCTAATT, the switch fluorescence ratio stood at 1.007 ± 0.0081.
